The target in the data set is T1, GmZF1 (GST fusion) (Glycine max (soybean), UniProt Q4FH86 1-172).
T1 sequence: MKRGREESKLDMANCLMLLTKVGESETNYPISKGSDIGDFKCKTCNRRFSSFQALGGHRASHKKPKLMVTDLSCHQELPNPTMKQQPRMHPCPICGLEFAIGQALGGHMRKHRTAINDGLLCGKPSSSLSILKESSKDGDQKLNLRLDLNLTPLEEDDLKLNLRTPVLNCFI
Briefly: EMSA; 20 µL binding buffer with 32P-labelled probe, glycerine and 0.2 µg purified protein; 6% polyacrylamide gel in TBE (printed as 0.53, probably 0.5x); salt, pH and temperature not stated. To be noted: protein: recombinant; tags: GST (pGEX-4T-1); label: 32P. (In general: Mobility shift assays separate free from complexed probe on a gel.)

B1: E1 (wild-type EP1S, 4 copies) (dsDNA)
DNA 1: TTGACAGTGTCACTTGACAGTGTCACTTGACAGTGTCACTTGACAGTGTCAC
DNA 2: GTGACACTGTCAAGTGACACTGTCAAGTGACACTGTCAAGTGACACTGTCAA
Take B1: the binding result was “binds”.

B2: E2 (mutant EP1S, base substitution) (dsDNA)
DNA 1: TTCAGAGTGTCACTTCAGAGTGTCACTTCAGAGTGTCACTTCAGAGTGTCAC
DNA 2: GTGACACTCTGAAGTGACACTCTGAAGTGACACTCTGAAGTGACACTCTGAA
As to B2, the binding result was “binds”.

The values are drawn from publication PMC4186855, “A Soybean C2H2-Type Zinc Finger Gene GmZF1 Enhanced Cold Tolerance in Transgenic Arabidopsis”.
